# Results from paper PMC11754096.
# Biological target: T-complex protein ring complex (TRiC), endogenous (human (endogenous in HEK293 cells)) (UniProt P17987)
# Test: cryo-EM structure; in situ cryo-electron tomography of FIB-milled HEK Flp-In T-Rex 293 cells, template matching, subtomogram averaging and classification; open TRiC; untreated cells and cells treated with 100 µM HHT for 2 h
substance,measurement,value
"prefoldin (PFD), endogenous (complex)",percent of all TRiC with a single PFD (HHT-treated cells),18%
same,percent of all TRiC with a single PFD (untreated cells),12%
same,percent of all TRiC with two PFD (HHT-treated cells),2%
same,percent of all TRiC with two PFD (untreated cells),1%
